The target in test [1] is T1, MASP2 in human serum (human, UniProt O00187 16-686). Put plainly: cell-based or functional assay.
In test [2] the target is T2, Murine MASP2A (S632A) protein (murine, UniProt Q91WP0 16-685). Nature of the test: SPR (Biacore 8K), antibody captured on anti-human Fc chip, antigen as analyte. On the procedure: (§1) The binding properties of the anti-MASP2 antibodies were determined by the method of Biacore. […] An anti-human Fc IgG capture chip was used to capture the antibodies, then antigens with different concentrations were used as a mobile phase for the determination, and finally curve fitting was performed according to a 1:1 mode to obtain affinity values.
T2 sequence (Q91WP0 other isoform, or with tags, fused parts or gaps S632A S632A): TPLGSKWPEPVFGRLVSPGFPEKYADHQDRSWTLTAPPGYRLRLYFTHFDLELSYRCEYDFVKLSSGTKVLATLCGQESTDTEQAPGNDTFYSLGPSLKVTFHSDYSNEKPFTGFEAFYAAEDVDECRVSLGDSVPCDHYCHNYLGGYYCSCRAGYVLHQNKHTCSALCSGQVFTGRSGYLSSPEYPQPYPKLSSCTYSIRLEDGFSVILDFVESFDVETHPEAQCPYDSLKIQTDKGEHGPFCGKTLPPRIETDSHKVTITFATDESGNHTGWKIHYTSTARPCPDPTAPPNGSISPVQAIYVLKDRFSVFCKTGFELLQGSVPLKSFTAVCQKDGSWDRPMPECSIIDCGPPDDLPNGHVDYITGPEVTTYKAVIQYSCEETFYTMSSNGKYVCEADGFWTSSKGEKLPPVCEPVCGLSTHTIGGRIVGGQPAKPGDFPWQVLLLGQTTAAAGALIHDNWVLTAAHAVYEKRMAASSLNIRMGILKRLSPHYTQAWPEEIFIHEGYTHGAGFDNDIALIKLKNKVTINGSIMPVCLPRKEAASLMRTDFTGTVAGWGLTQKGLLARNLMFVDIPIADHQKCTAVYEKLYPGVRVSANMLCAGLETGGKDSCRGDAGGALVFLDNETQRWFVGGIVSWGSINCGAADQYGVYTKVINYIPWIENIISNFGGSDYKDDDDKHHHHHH

In test [3] the target is T3, Human MASP2A (S633A) protein (human, UniProt O00187 16-686).
T3 construct: also called human enzymatic mutant human MASP2A (S633A)
T3 sequence (O00187 other isoform, or with tags, fused parts or gaps S633A S633A): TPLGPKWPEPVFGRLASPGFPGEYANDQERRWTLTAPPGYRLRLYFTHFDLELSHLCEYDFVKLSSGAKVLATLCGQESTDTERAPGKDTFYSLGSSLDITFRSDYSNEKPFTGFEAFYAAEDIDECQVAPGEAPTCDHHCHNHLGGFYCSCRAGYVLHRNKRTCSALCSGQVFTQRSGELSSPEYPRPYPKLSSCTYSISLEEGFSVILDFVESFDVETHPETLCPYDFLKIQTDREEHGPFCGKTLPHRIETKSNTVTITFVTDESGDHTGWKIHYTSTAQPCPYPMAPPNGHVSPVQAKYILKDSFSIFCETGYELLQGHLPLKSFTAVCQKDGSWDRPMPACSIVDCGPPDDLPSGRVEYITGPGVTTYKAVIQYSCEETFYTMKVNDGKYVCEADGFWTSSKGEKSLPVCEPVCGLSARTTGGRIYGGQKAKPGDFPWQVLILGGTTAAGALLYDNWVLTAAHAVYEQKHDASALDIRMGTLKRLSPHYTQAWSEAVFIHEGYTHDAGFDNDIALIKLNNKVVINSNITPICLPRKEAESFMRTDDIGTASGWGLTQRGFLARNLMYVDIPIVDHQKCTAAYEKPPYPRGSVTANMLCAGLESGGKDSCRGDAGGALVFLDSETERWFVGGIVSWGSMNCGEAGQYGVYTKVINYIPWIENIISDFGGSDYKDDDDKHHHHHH
Put plainly: SPR (Biacore 8K), antibody captured on anti-human Fc chip, antigen as analyte, 1:1 fit. On the procedure:
as §1
(SPR reads the build-up and loss of mass on a sensor chip optically.)

Test [4] deals with Monkey MASP2A (S633A) protein (monkey, UniProt O00187 16-686 (human entry)). Described as above. On the procedure:
as §1

The target of test [5] is T1, MASP2 in human serum. Put plainly: cell-based or functional assay. This is another data set of the same source.
Another test has as its target MASP2 in monkey serum (monkey). Put plainly: cell-based or functional assay.
For test [6], the target named is T1, MASP2 in human serum. Put plainly: cell-based or functional assay. The source holds these as a separate data set.
In test [7] the target is T2, Murine MASP2A (S632A) protein. Nature of the test: SPR (Biacore 8K), antibody captured on anti-human Fc chip, antigen as analyte, 1:1 fit. The protocol: as §1
The target in another test is MASP2 in mouse serum (mouse, UniProt Q91WP0 20-685). Put plainly: cell-based or functional assay.
MASP2 in mouse serum, sequence (Q91WP0 20-685 limits assumed): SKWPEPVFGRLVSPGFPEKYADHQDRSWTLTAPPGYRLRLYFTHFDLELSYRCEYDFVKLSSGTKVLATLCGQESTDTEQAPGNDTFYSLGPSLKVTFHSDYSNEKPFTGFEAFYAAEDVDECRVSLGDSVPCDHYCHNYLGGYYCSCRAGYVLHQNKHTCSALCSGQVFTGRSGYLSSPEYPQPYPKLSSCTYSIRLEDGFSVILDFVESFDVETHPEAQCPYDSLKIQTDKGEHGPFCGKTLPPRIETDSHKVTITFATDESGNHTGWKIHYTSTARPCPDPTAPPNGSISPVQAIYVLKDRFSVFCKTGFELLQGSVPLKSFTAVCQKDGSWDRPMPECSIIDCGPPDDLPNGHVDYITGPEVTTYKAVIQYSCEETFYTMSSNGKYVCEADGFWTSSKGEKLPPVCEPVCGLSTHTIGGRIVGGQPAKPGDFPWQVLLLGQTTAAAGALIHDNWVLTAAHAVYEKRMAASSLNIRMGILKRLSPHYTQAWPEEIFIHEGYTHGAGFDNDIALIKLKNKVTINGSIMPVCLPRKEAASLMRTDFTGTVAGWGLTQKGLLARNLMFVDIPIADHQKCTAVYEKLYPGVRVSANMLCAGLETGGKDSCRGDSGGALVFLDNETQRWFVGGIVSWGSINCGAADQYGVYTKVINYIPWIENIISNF
Test [8] addresses T1, MASP2 in human serum. Put plainly: cell-based or functional assay. The source holds these as a separate data set.
The target of test [9] is T1, MASP2 in human serum. Put plainly: cell-based or functional assay. The source holds these as a separate data set.

The text below walks through data of patent US20240209114A1 (JIANGSU HENGRUI PHARMACEUTICALS, published 2024).

Residue numbers refer to the chain shown, from its start. Numbers in names are those of the source. Where two headings read alike, the source gives them in different places.

T1 sequence (O00187 16-686 limits assumed): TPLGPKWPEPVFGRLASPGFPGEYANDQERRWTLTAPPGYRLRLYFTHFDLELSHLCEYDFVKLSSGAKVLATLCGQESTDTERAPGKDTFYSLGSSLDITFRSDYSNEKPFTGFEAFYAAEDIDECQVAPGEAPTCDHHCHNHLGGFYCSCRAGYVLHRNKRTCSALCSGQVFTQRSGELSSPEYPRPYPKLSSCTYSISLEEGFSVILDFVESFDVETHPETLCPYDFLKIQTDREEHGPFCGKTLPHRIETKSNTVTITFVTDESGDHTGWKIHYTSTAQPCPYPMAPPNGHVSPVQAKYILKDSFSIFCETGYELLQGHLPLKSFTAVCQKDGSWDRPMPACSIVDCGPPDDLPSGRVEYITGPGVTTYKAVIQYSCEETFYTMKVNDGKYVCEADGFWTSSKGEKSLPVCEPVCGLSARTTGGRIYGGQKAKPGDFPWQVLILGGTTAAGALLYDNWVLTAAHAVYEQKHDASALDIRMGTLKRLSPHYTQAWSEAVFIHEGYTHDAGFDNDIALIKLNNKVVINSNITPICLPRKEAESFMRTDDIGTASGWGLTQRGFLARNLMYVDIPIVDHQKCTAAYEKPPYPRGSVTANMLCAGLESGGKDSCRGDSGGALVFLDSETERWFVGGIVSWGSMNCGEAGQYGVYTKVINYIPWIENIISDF
Monkey MASP2A (S633A) protein, sequence (O00187 other isoform, or with tags, fused parts or gaps S633A S633A): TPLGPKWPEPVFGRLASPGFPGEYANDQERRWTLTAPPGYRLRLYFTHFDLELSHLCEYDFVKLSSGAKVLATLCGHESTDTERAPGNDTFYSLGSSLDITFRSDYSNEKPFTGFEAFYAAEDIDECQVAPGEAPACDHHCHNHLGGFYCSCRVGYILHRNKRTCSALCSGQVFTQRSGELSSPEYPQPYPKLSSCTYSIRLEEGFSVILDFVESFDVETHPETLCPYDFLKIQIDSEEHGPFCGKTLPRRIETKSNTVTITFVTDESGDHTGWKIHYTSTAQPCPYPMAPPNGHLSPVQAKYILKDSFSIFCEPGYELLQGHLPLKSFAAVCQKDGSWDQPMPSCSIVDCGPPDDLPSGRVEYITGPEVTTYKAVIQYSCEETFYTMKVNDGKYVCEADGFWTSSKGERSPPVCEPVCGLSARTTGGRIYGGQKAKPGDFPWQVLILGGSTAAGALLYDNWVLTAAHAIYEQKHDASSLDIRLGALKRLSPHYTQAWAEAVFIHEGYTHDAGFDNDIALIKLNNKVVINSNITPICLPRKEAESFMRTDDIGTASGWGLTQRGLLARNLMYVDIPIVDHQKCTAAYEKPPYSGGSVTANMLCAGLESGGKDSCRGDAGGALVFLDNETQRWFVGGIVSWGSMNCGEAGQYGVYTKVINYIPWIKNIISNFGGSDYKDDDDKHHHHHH

B1: 29C1 (H1L1) (antibody, human IgG4 S228P, kappa, V domains shown)
VH: EVQLVESGGGLVKPGGSLRLSCAASGFTFSRFALSWVRQAPGKGLEWVSAVSRGGDYTYYPDSMKGRFTISRDNAKNSLYLQMNSLRAEDTAVYYCARHLYGYGHYYAMDYWGQGTTVTVSS
VL: DIQMTQSPSSLSASVGDRVTITCKASQDVNTAVAWYQQKPGKAPKLLIYSASYRYTGVPSRFSGSGSGTDFTFTISSLQPEDIATYYCQQHYSTPYTFGGGTKVEIKR
notes: Humanized 29C1, full-length human IgG4 (S228P); also called 29C1 (HIL1)
With B1, the “IC50 (µg/mL), inhibition of the lectin pathway in 90% human serum (C4c deposition on mannan)” value with MASP2 in human serum [1] was 0.477 µg/mL. Besides, in test [2], the binding result is recorded as “no binding”. In addition, in [3], the dissociation constant (Kd) (in general, the free concentration of one partner at which half of the binding sites on the other are occupied at equilibrium, for simple one-to-one binding) amounted to 0.0716 nM; the koff (in general, the first-order rate constant of dissociation) worked out at 2.94e-05 s⁻¹; the kon (usually the second-order rate constant of association) is 410000 M⁻¹ s⁻¹. In addition, in test [4], the dissociation constant Kd came to 0.193 nM, the off-rate constant (koff) came to 6.83e-05 s⁻¹ and the association rate constant (kon) is 354000 M⁻¹ s⁻¹. In the test with MASP2 in human serum [5], the “90% human serum IC50 (µg/mL), inhibition of the lectin pathway (C4c deposition on mannan)” value (from here on “90% human serum IC50 (µg/mL), inhibition”) was 1.18 µg/mL. The “90% monkey serum IC50 (µg/mL), inhibition of the lectin pathway (C4c deposition on mannan)” value with MASP2 in monkey serum came out at 15.3 µg/mL.

B2: 29C1 (H3L2) (antibody, V domains shown)
VH: B1 VH with S49A
VL: DIVMTQSPSSLSASVGDRVTITCKASQDVNTAVAWYQQKPGKSPKLLIYSASYRYTGVPSRFSGSGSGTDFTFTISSLQPEDIATYYCQQHYSTPYTFGGGTKVEIK
For the molecule B2, in the test with MASP2 in human serum [1], the “IC50 (µg/mL), inhibition of the lectin pathway in 90% human serum (C4c deposition on mannan)” value was found to be 0.515 µg/mL.

B3: 29C1 (H2L2) (antibody, V domains shown)
VH: B1 VH with S49A
VL: B2 VL
On to B3, for which the “IC50 (µg/mL), inhibition of the lectin pathway in 90% human serum (C4c deposition on mannan)” value with MASP2 in human serum [1] is 0.555 µg/mL.

B4: 29C1 (H1L2) (antibody, V domains shown)
VH: B1 VH
VL: B2 VL
Turning to B4, the “IC50 (µg/mL), inhibition of the lectin pathway in 90% human serum (C4c deposition on mannan)” value with MASP2 in human serum [1] was determined as 0.534 µg/mL.

B5: 29C1 (H2L1) (antibody, V domains shown)
VH: B1 VH with S49A
VL: B2 VL with V3Q, S43A
In the case of B5, the “IC50 (µg/mL), inhibition of the lectin pathway in 90% human serum (C4c deposition on mannan)” value with MASP2 in human serum [1] is 0.471 µg/mL.

B6: 29C1 (H3L1) (antibody, V domains shown)
VH: B1 VH with S49A
VL: B2 VL with V3Q, S43A
As for B6, the “IC50 (µg/mL), inhibition of the lectin pathway in 90% human serum (C4c deposition on mannan)” value in the test with MASP2 in human serum [1] worked out at 0.526 µg/mL.

B7: 29C1 (antibody, V domains shown)
VH: EVQLVESGGGLVKPGGSLKLSCAASGFTFSRFALSWVRQTPEKRLEWVAAVSRGGDYTYYPDSMKGRFTISRDNAMNTLYLQMSSLSSEDTAMYYCARHLYGYGHYYAMDYWGQGTSVTVSS
VL: DIVMTQSHKFMSTSVGDRVSITCKASQDVNTAVAWYQQKPGQSPKLLIYSASYRYTGVPDRFTGSGSGTDFTFTISSVQAEDLAVYYCQQHYSTPYTFGGGTKLEIK
Regarding B7, the “IC50 (µg/mL), inhibition of the lectin pathway in 1% human serum (C4c deposition on mannan)” value in the test with MASP2 in human serum [6] is 0.086 µg/mL.

B8: OMS721 (antibody, human IgG4 S228P, lambda, V domains shown)
VH: QVTLKESGPVLVKPTETLTLTCTVSGFSLSRGKMGVSWIRQPPGKALEWLAHIFSSDEKSYRTSLKSRLTISKDTSKNQVVLTMTNMDPVDTATYYCARIRRGGIDYWGQGTLVTVSS
VL: QPVLTQPPSLSVSPGQTASITCSGEKLGDKYAYWYQQKPGQSPVLVMYQDKQRPSGIPERFSGSNSGNTATLTISGTQAMDEADYYCQAWDSSTAVFGGGTKLTVLG
notes: Positive control, synthesized according to WO2012151481A; also called narsoplimab; positive control antibody
Turning to B8, the equilibrium dissociation constant (Kd) in test [7] is 0.233 nM. Besides, in the test with MASP2 in monkey serum, the “90% monkey serum IC50 (µg/mL), inhibition of the lectin pathway (C4c deposition on mannan)” value was found to be 26.6 µg/mL. Moreover, the “90% mouse serum IC50 (µg/mL), inhibition of the lectin pathway (C4c deposition on mannan)” value with MASP2 in mouse serum stood at 3.74 µg/mL.

B9: 77H11 (H3L1) (antibody, human IgG4 S228P, kappa, V domains shown)
VH: EVQLQESGPGLVKPSQTLSLTCTVSGYSITSDYAWNWIRQPPGKGLEWIGYISYSGRTSYNPSLKSRVTISRDTSKNQFSLKLSSVTAADTAVYYCAVLYALDYWGQGTTVTVSS
VL: DIQMTQSPSSLSASVGDRVTITCKASQNVDTNVAWYQQKPGKVPKALIYSASYRYSGVPSRFSGSGSGTDFTLTISSLQPEDVATYYCQQYNSNPLTFGQGTKLEIKR
notes: Humanized 77H11, full-length human IgG4 (S228P); also called 77H1(H3L1); 77H1 (H3L1)
For the molecule B9, in the test with MASP2 in human serum [1], the “IC50 (µg/mL), inhibition of the lectin pathway in 90% human serum (C4c deposition on mannan)” value was 0.624 µg/mL. Further, in test [2], the binding result is “no binding”. In test [4], this molecule had a Kd of 0.14 nM, a koff of 8.63e-05 s⁻¹ and a kon of 616000 M⁻¹ s⁻¹. In addition, the “90% human serum IC50 (µg/mL), inhibition” value with MASP2 in human serum [5] was 0.97 µg/mL. In addition, the “90% monkey serum IC50 (µg/mL), inhibition of the lectin pathway (C4c deposition on mannan)” value with MASP2 in monkey serum was 21.6 µg/mL.

B10: 77H11 (H4L1) (antibody, V domains shown)
VH: B9 VH with K44N, G45K, I49M, V68I
VL: DIQMTQSPSSLSASVGDRVTITCKASQNVDTNVAWYQQKPGKVPKALIYSASYRYSGVPSRFSGSGSGTDFTLTISSLQPEDVATYYCQQYNSNPLTFGQGTKLEIK
In the case of B10, in the test with MASP2 in human serum [1], the “IC50 (µg/mL), inhibition of the lectin pathway in 90% human serum (C4c deposition on mannan)” value was 0.67 µg/mL.

B11: 77H11 (H2L2) (antibody, V domains shown)
VH: B9 VH with R72V
VL: B10 VL with V43S, T85E
B11: the “IC50 (µg/mL), inhibition of the lectin pathway in 90% human serum (C4c deposition on mannan)” value with MASP2 in human serum [1] came out at 1.58 µg/mL.

B12: 77H11 (H4L2) (antibody, V domains shown)
VH: B9 VH with K44N, G45K, I49M, V68I
VL: B10 VL with V43S, T85E
Turning to B12, the “IC50 (µg/mL), inhibition of the lectin pathway in 90% human serum (C4c deposition on mannan)” value with MASP2 in human serum [1] was determined as 0.443 µg/mL.

B13: 77H11 (H3L2) (antibody, V domains shown)
VH: B9 VH
VL: B10 VL with V43S, T85E
Turning to B13, in the test with MASP2 in human serum [1], the “IC50 (µg/mL), inhibition of the lectin pathway in 90% human serum (C4c deposition on mannan)” value is 0.454 µg/mL.

B14: 77H11 (antibody, V domains shown)
VH: DVQLQESGPGLVKPSQSLSLTCTVTGYSITSDYAWNWIRQFPGNKLEWMGYISYSGRTSYNPSLKSRISITRDTSKNQFFLQLNSVTTEDTATYYCAVLYALDYWGQGTSVTVSS
VL: DIVMTQSQKFMSTSVGDRVSVTCKASQNVDTNVAWYQQKPGQSPKALIYSASYRYSGVPDRFTGSGSGTDFTLTISDVQSEDLAEYFCQQYNSNPLTFGSGTKLEIK
For the molecule B14, the “IC50 (µg/mL), inhibition of the lectin pathway in 1% human serum (C4c deposition on mannan)” value in the test with MASP2 in human serum [8] amounted to 0.63 µg/mL.

B15: 67D2 (antibody, V domains shown)
VH: B14 VH with V98I, L102M, D103N, Y104F
VL: B14 VL with Y55F, D77N
Consider B15, for which the “IC50 (µg/mL), inhibition of the lectin pathway in 1% human serum (C4c deposition on mannan)” value in the test with MASP2 in human serum [8] was found to be 0.559 µg/mL.

B16: 67E8 (antibody, V domains shown)
VH: B14 VH with V98I, L102M
VL: B14 VL with D77N
With B16, in the test with MASP2 in human serum [8], the “IC50 (µg/mL), inhibition of the lectin pathway in 1% human serum (C4c deposition on mannan)” value turned out to be 0.738 µg/mL.

B17: 11165 (antibody, human IgG4 S228P, lambda, V domains shown)
VH: QVQLQESGPGLVKPSETLSLTCTVSGGSISSGEYFWGWIRQPPGKGLEWIGSIYYSGSTYYNPSLKSRVTISVDTSKNQFSLKLSSVTAADTAVYYCARSLKAARRDAFDIWGQGTTVTVSS
VL: QSVLTQPPSVSVSPGQTASITCSGHKLGDKYAYWYQQKPGQSPVLVIYQDTKRPSGIPERFSGFNSGNTATLTISGTQATDEADYYCQTWDSSTGVFGAGTKVTVLG
notes: Fully human antibody from phage display; Full-length human IgG4 (S228P), lambda light chain
Take B17: the “IC50 (µg/mL), inhibition of the lectin pathway in 1% human serum (C4c deposition on mannan)” value with MASP2 in human serum [9] amounted to 0.499 µg/mL. In [7], this molecule had a Kd of 0.435 nM, a koff of 0.00192 s⁻¹ and an association rate constant (kon) of 4.41e+06 M⁻¹ s⁻¹. Also, the “90% human serum IC50 (µg/mL), inhibition” value with MASP2 in human serum [5] was 0.93 µg/mL. For the same molecule, the “90% monkey serum IC50 (µg/mL), inhibition of the lectin pathway (C4c deposition on mannan)” value in the test with MASP2 in monkey serum stood at 21.1 µg/mL. Also, in the test with MASP2 in mouse serum, the “90% mouse serum IC50 (µg/mL), inhibition of the lectin pathway (C4c deposition on mannan)” value amounted to 4.26 µg/mL.
